Measurements: patent publication US12329814B2, “Combination of a substance modulating tumor immune microenvironment and immunotherapy for the treatment of cancer” (Boostimmune, Inc., priority 2022, dated 2025)

Tests used:
extracellular TCTP = target: T1, extracellular TCTP (Mus musculus, UniProt P63028); assay: Cxcl1 mRNA in peritoneal exudate cells stimulated with SL4 conditioned supernatant (RT-qPCR); assay type: cell-based; settings: PECs stimulated 2 hours with conditioned supernatant of SL4 cells containing antibody, vs control IgG; FIG. 6A
T1 construct: stimulated with conditioned supernatant of SL4 cells containing antibody 55F3 or control IgG; endogenous in cells; host or cells: SL4 mouse colon carcinoma cells (conditioned supernatant), applied to mouse peritoneal exudate cells
T1 sequence (P63028 1-172): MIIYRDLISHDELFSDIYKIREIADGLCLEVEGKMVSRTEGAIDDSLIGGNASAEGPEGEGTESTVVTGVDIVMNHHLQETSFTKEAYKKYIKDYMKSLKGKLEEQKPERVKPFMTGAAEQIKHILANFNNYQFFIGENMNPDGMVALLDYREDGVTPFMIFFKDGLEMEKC
Procedure: (§1) Peritoneal exudate cells (PECs) (2×10^5 cells) were stimulated with conditioned supernatant of SL4 cells containing antibody 55F3 or control IgG, and after 2 hours of stimulation, Cxcl1 mRNA levels were determined by RT-qPCR. As a result of blockade of extracellular TCTP with antibody 55F3, the expression of Cxcl1 mRNA was suppressed (FIG. 6A). Subsequently, SL4 cells were transplanted into C57BL/6 mice via subcutaneous injection, and 55F3 or control IgG (200 μg/mouse) was then intraperitoneally administered to the mice every other day, starting from Day 1 after the transplantation, and the volume of the tumor was measured. As a result, the proliferation speed of SL4 tumor cells was decreased by administration of 55F3 (FIG. 6B), and the amount of PMN-MDSCs in the TIME was decreased (FIG. 6C).

SL4 tumor cells = assay: SL4 subcutaneous tumor in C57BL/6 mice treated with anti-TCTP antibody; assay type: in vivo; settings: 200 μg/mouse intraperitoneally every other day from Day 1, vs control IgG
Procedure: as §1

[1] = system: SL4 TCTP KO+hTCTP tumor cells; assay: TCTP KI SL4 (TCTP KO+hTCTP) subcutaneous tumor in C57BL/6 mice treated with anti-TCTP antibodies; assay type: in vivo; settings: 100 μg intraperitoneally on days 1, 4, 8, 11, vs PBS; FIG. 7
Procedure: HEK293Ta cells (3×10^6 cells) were transfected with pCSII-EF-MCS-IRES2-Venus-hTCTP lentiviral expression vector and its helper vectors (pMDLg/p.RRE and pCMV-VSV-G-RSV-Rev). After 48 hours of the transfection, culture supernatants were collected and filtered (0.45 μm; Millipore). TCTP KO SL4 cells from Example 1 (1×10^6 cells) were infected using the supernatant. After infection, GFP-positive human TCTP-expressing TCTP KO SL4 cells (hereafter TCTP KI SL4 cells) were sorted using FACSMelody cell sorter. TCTP KI SL4 cells (2×10^5 cells/100 μL PBS), TCTP KO SL4 cells (2×10^5 cells/100 μL PBS), or parental SL4 cells (2×10^5 cells/100 μL PBS) were inoculated into C57BL/6 mice. After cell inoculation, tumor volumes were measured over time.
TCTP KI SL4 cells (TCTP KO+hTCTP; 5×10^5 cells in 100 μL PBS) from example 3 were subcutaneously inoculated into C57BL/6 mice (Day 0). Anti-TCTP (100 μg in 100 μL PBS) antibodies were administered intraperitoneally into the mice on days 1, 4, 8, and 11. As a control, 100 μL of PBS was administered. Tumor size was measured on days 3, 6, 9, and 11. As a result, the proliferation speed of SL4 TCTP KO+hTCTP tumor cells was decreased by administration of 55F3 or 1-2-4 (FIG. 7).

B16F10 cells = assay: B16F10 tumor treated with anti-TCTP antibody in combination with anti-PD-1 antibody; assay type: in vivo, C57BL/6 mice; settings: anti-TCTP 100 μg i.p. days 1, 4, 8, 11, 15, 18, 22 plus anti-PD-1 (BioXCell) 100 μg i.v. day 10, compared with checkpoint antibody alone, FIGS. 9A and 9B
Procedure: The influence of the combination of anti-TCTP antibodies with an anti-PD-1 antibody on tumor suppression was also studied. B16F10 (1×10^5 cells in 50 μL PBS) cells were subcutaneously inoculated into C57BL/6 mice (Day 1). An anti-PD-1 antibody (BioXCell; 100 μg in 100 μL PBS) was administered intravenously ten days after the inoculation, and anti-TCTP antibodies 55F3 and 1-2-4 (each 100 μg in 100 μL PBS) were administered intraperitoneally in the mice on days 1, 4, 8, 11, 15, 18, and 22. As a result, the effect of suppressing tumor proliferation is improved by the combined administration of an anti-TCTP antibody and a PD-1 or CTLA-4 antagonist antibody, compared with the case of single administration of a PD-1 or CTLA-4 antagonist antibody alone (FIGS. 9A and 9B).

SL4 cells = assay: SL4 tumor treated with anti-TCTP antibody in combination with anti-PD-1 antibody; assay type: in vivo, C57BL/6 mice; settings: 55F3 i.p. every day from Day 1 plus anti-PD-1 monoclonal antibody (BioLegend) day 10, compared with PD-1 antagonist antibody alone, FIG. 10
Procedure: This synergistic effect was also confirmed in the experiment using SL4 cells. SL4 cells were transplanted into C57BL/6 mice via subcutaneous injection, and thereafter, antibody 55F3 was intraperitoneally […] into the mice every day, starting from Day 1 after the transplantation. Ten days after the transplantation, an anti-PD-1 monoclonal antibody (BioLegend) was administered to the mice, and the tumor volume was then measured. As a result, it was confirmed that the effect of suppressing tumor proliferation is improved by the combined administration of an anti-TCTP antibody and a PD-1 antagonist antibody, compared with the case of single administration of a PD-1 antagonist antibody alone (FIG. 10).

B16F10 tumors = assay: Flow cytometry of tumor-infiltrating immune cells, B16F10 tumors, anti-TCTP and anti-PD-1 antibodies; assay type: in vivo, C57BL/6 mice; settings: B16F10, 12 days; 55F3 200 μg i.p. every 2 days and/or anti-PD-1 RMP1-14 10 mg/kg i.p. days 0, 3, 7, 10, 14; FIG. 11C
Procedure: (§2) Effect of the combination of anti-TCTP antibody and anti-PD-1 antibody on T cells and NK cells in the TIME was also studied. Tumor-infiltrating immune cells were collected from B16F10 and MC38 tumors treated with anti-TCTP antibody and/or anti-PD-1 antibody and were then analyzed by flow cytometry. B16F10 cells (5×10^5 cells) or MC38 cells (3×10^5 cells) were transplanted subcutaneously into C57BL/6 mice. Anti-PD-1 antibody RMP1-14 (BioXCell; 10 mg/kg) was administered intraperitoneally on days 0, 3, 7, 10, 14 after the inoculation, and anti-TCTP antibody 55F3 (200 μg in 200 μL PBS) was administered intraperitoneally in the mice every 2 days after the inoculation. After 15 days (MC38) or 12 days (B16F10) of transplantation, single cell suspensions were prepared from tumors and subjected to flow cytometry analysis.

MC38 tumors = assay: Flow cytometry of tumor-infiltrating immune cells, MC38 tumors, anti-TCTP and anti-PD-1 antibodies; assay type: in vivo, C57BL/6 mice; settings: MC38, 15 days; 55F3 200 μg i.p. every 2 days and/or anti-PD-1 RMP1-14 10 mg/kg i.p. days 0, 3, 7, 10, 14; FIG. 11C
Procedure: as §2

B1: 55F3: Mouse monoclonal anti-TCTP antibody; VH SEQ ID NO: 25, VL SEQ ID NO: 29; CDRs SEQ ID NO: 1-6 (antibody, listed as Mus musculus)
VH: MRVLILLWLFTAFPGILSDVQLQESGPGLVKPSQSLSLTCTATGYSIASDYAWNWIRQFPGNKLEWMGYINYSGSTGYNPSLKSRISITRDTSKNQFFLQLNSVTTEDTATYYCARFEAGYWGQGTTLTVSSAKTTPPSVYPLAPGSAAQTNSMVTLGCLVKGYFPEPVT
VL: MDMRTPAQFLGILLLWFPGIKCDIKMTQSPSSMSASLGERVTITCKASQDINRYLSWFQQKPGKSPKTLIYRANRLVDGVPSRFSGSGSGQDYSLTISSLEYGDMGIYYCLQYNEFPLTFGAGTKLELKRADAAPTVSIFPPSSEQLTSGGASVVCFLN
Extracellular TCTP
  expression of Cxcl1 mRNA: suppressed
SL4 tumor cells; FIG. 6B
  proliferation speed of SL4 tumor cells (tumor volume): decreased
SL4 tumor cells; SL4 tumor, FIG. 6C
  amount of PMN-MDSCs in the TIME: decreased
[1]
  proliferation speed of SL4 TCTP KO+hTCTP tumor cells (tumor size): decreased
B16F10 cells
  effect of suppressing tumor proliferation, combined administration with anti-PD-1 antibody: improved
SL4 cells
  effect of suppressing tumor proliferation, combined administration with anti-PD-1 antibody: improved
B16F10 tumors
  CD8+ cells in tumor (abundance ratio): increased
MC38 tumors
  CD8+ cells in tumor (abundance ratio): increased

B2: 1-2-4: Human monoclonal anti-TCTP antibody from CAMOUSE; VH SEQ ID NO: 28, VL SEQ ID NO: 32; CDRs SEQ ID NO: 19-24 (antibody, V domains shown)
VH: MDWTWRILFLVAAATGAHSQVQLVQSGAEVKKPGASVKVSCKASGYTFFSYAMHWVRQAPGQRLEWMGWINAGNGNTKYSQKFQDRVTITRDTSATTAYMELSSLRSEDTAVYYCASWVFDYWGQGTPVTVSS
VL: MRLLAQLLGLLMLWVPGSSGDIVMTQTPLSSLVTLGQPASISCRSSQSLVHRDGNTYLSWLQQRPGQPPRLLIYKISNRFFGVPDRFSGSGAGTDFTLKISRVEAEDVGVYYCMQATQFPHTFGQGTKLEIK
modifications: Variable region of antibody
[1]
  proliferation speed of SL4 TCTP KO+hTCTP tumor cells (tumor size): decreased
B16F10 cells
  effect of suppressing tumor proliferation, combined administration with anti-PD-1 antibody: improved
